Assay results: patent publication US20120283421A1 (published 2012)

Target: T1, nine-person peanut-specific IgE antibody pool
T1 construct: polyclonal human serum IgE; also called pooled serum; peanut-positive serum pool
Assay: competitive ELISA inhibition, pooled serum IgE on coated crude peanut

IC50: 5.5 ng/mL
B1: Ara h 1 (purified from peanut) (other)
chain: KSSPYQKKTENPCAQRCLQSCQQEPDDLKQKACESRCTKLEYDPRCVYDPRGHTGTTNQRSPPGERTRGRQPGDYDDDRRQPRREEGGRWGPAGPREREREEDWRQPREDWRRPSHQQPRKIRPEGREGEQEWGTPGSHVREETSRNNPFYFPSRRFSTRYGNQNGRIRVLQRFDQRSRQFQNLQNHRIVQIEAKPNTLVLPKHADADNILVIQQGQATVTVANGNNRKSFNLDEGHALRIPSGFISYILNRHDNQNLRVAKISMPVNTPGQFEDFFPASSRDQSSYLQGFSRNTLEAAFNAEFNEIRRVLLEENAGGEQEERGQRRWSTRSSENNEGVIVKVSKEHVEELTKHAKSVSKKGSEEEGDITNPINLREGEPDLSNNFGKLFEVKPDKKNPQLQDLDMMLTCVEIKEGALMLPHFNSKAMVIVVVNKGTGNLELVAVRKEQQQRGRREEEEDEDEEEEGSNREVRRYTARLKEGDVFIMPAAHPVAINASSELHLLGFGINAENNHRIFLAGDKDNVIDQIEKQAKDLAFPGSGEQVEKLIKNQKESHFVSARPQSQSQSPSSPEKESPEKEDQEEENQGGKGPLLSILKAFN
modifications: glycoprotein (PAS positive); fluorescein-labelled tracer in Example 6
notes: Native allergen from peanut extract; Forms trimers and hexamers
